# Laboratory results: the nanobody polyreactivity screen of Harvey et al. (2022)
# Assay: yeast display, Sf9 membrane polyspecificity reagent, FACS + sequencing; frameworks hold sequencing errors
# Summary of the method: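 Genes from sorted yeast were amplified by colony PCR, read by MiSeq 2 × 250 sequencing and filtered on CDR length. These cells carried a synthetic nanobody library in Saccharomyces cerevisiae BJ5465 and were sorted by FACS into low and high (top ~1%) gates on anti-HA and streptavidin fluorescence. Polyreactivity is labelled according to the gate of origin.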
row,Sequence,polyreactivity (PSR sort gate)
1,QVQLVESGGGLVQAGGSLRLSCAASGRTFYRYAMGWYRQAPGKERELVAAISSNGGSTYYADSVKGRFTISRDNAKNTVYLQMNSLKPEDTAVYYCYYYYSRLFDYWGQGTQVTVSS,high polyreactivity
2,QVQLVESGGGLVQAGGSLRLSCAASGSIFQGYSMGWYRQAPGKERELVAAITASGGSTYYADSVKGRFTISRDNAKNTVYLQMNSLKPEDTAVYYCATDSYWRQDLYRYEYWGQGTQVTVSS,high polyreactivity
3,QVQLVESGGGLVQAGGSLRLSCAASGSIFNYYAMGWYRQAPGKERELVATISSGGNTKYADSVKGRFTISRDNAKNTVYLQMNSLKPEDTAVYYCAARWQHSGYRDRYWYDYWGQGTQVTVSS,low polyreactivity
4,QVQLVESGGGLVQAGGSLRLSCAASGRTFYTNAMGWYRQAPGKERELVAAIDGGGTTYYADSVKGRFTISRDNAKNTVYLQMNSLKPEDTAVYYCNADVFGLKQTAFDYWGQGTQVTVSS,low polyreactivity
5,QVQLVESGGGLVQAGGSLRLSCAASGSIFTDNAMGWYRQAPGKERELVAAITGRGGNTYYADSVKGRFPISRDIAKNPVYLQMNSLKPEDTAVYYCAARIFRTRKPLGYWGQGTQVTVSS,high polyreactivity
6,QVQLVESGGGLVQAGGSLRLSCAHSASTLQIYAMGWDRQAPGKESELVASISSTTSTNYADSVMGRFTISRDNAKNTVYLQMNSMKPEDTAVYYCARERFGGTDSQVVPWFRFDYDYWGQRTQVTVSS,low polyreactivity
7,QVQLVESGGGLVQAGGSLRLSCAASGFIFTGNAMGWYRQAPGKERELVAAITQSGGHTSYADSVKGRFTISRDNAKNTVYLQMNSLKPEDTAVYYCNAEYTWPYHGVRNGWFNFKYEYWGQGTQVTVSS,low polyreactivity
8,QVHLVESGGGLVQAGGSLRLSCAASGSTFSGYTMGWYRQAPGKEREFVAAISSRGGSTYYADSVKGRFTISRDNAKNSVYLQMNSVNPEDTAVYYCAAKVWARVDGRQFRLEYWGQGTQVTVSS,high polyreactivity
9,QVQLVESGGGLVQAGGSLRLSCAASGSTFAQDALGWYRQAPGKERELVATISASGGTTYYADSVKGRFSISRDNAKNPVYLQMNSLKPEDTAVYYCAKRRVWWPAHRSYLYASEFGYWGQGTQVTVSS,low polyreactivity
10,QVQLVESGGGLVQAGGSLRLSCAAYGFIFKKYAMGWYRQAPGKERELVAAISGSSTRTYYADSVKGRFTISRDNAKKTVYLQMHSLKPEDTAVYYCVGRFYERDYWGQGTQVTVSS,high polyreactivity
11,QVQLVESVVGLVQAGGSLRLRCAASGIIFSKYAMGWYIQEPGKERELVARISWRGGDTYYADSVKGRFTISRDNAKNTVYLKMNSMKQEDTSVYYFNARIWGRYFSYTRFDYWGQCTQVTVSS,high polyreactivity
12,QVQLVESGGGLVQAGGSLRLSCAASGFIFWDKAMGWYRQAPGKEWELVAAISKSGTRTYYADSVKGRFTISRDTAKKTVDLQMNSLKPEETAVYYCAAEGSGYDYYYWGQGTQVTVSS,high polyreactivity
13,QVQLVESGGGLVEAGGSLRLSCAASGAIFQYAMGWYRQAPGKERELVAGITYRGSTYYADSVKGRFTISRDNAKNTVYLQMNSMKPEDTAVYDCAALQRGFGYRPRRWSYDYWGQGTQVTVSS,high polyreactivity
14,QVQLVESGGGLVQAGGSLRLSCAASGRTFYVYDMGWYRQAPRKEREFVATITARGGSTSYADSVKGRFTISRDNAKNTVYLQMNILKPEDTAVYYCNADIHVYPTRTRYYYWGQGTQVTVSS,low polyreactivity
15,QVQQQESGGGLVQAGGSLRLSCAASGTIFQLTFMGRYRQAPGKERELVASIDYGGNTNYADSVKGRFTISRDNAKNNVYLQMNSLKPEDTAVYYCAASSDSWTTHPYWGQGTHVTVSS,low polyreactivity
16,QVQLVESGGGLVQAGGSLRLSCAASGRTFYSYAMVWYRQAPGKERELVAAISAGGSTYYADSVKGRFTSSRDNAMTTLYLQMNSLKPEDTAVYYCADTYSYYYVRYHYWGQGTQVTVSS,high polyreactivity
17,QVQLVESGGGLVQAGGSLRLSCAASGLTFRYYAMGWYREAPGKEREFVAAITSSGGSTDYADSVKGRFTISRDNAKNSVYLQMNSVKPDDTGVFYCAAATNTQESVPMYYWGQGTQVTVSS,low polyreactivity
18,QVQLVESGGGLVQAGGSLRLSCAASGLTFSWNAMGWYRQAPGKERELVAAISSRGGSTYYADSVKGRFKISRDNAKNTVYLQMNSLKPEDTAVYYCNAHGRRFLGDYGYWGQGTQVTVSS,low polyreactivity
19,QVQLVESGGGLVQAGGSLRLSCAASGRTFRNNTMGCYRQAPGKERELVATITGSGGSTYYADSVKGRFTISRDNSKNTVYLQMNSLKPEDTAVYYCAAVGDQNEYVYWGQGTQVTVSS,low polyreactivity
20,QVQLVESGGGLVQAGGSLRLSCAASGIILGPYAMGWYRQAPGKERELVAAISWRGGSTYYADSVKGRFTISRDNAKNTVYLQMNSLKPEDTAVYYCATASRTSRTGWAGYYWGQGTQVTVSS,high polyreactivity

row,Sequence,polyreactivity (PSR sort gate)
1,QVQLVESGGGLVQAGGSLRLSCAASGFIFQYYGMGWYRQAPGQVRELVAAIDSRGGSTYYADSVKGRFTISRDNAKNTVSLQMNSLKPADTAVYYCAAMGLYQGTLNHFYYWGQGTQVTVAS,low polyreactivity
2,QVQLVESGGGLVQAGGSLRLSCAASGSTFPYYAMGWYRQAPGKERELVAAITSSTGRTYYADSVKGRFTISRDNAKNTVYFQMNSLKPEDTAVYYCNAEVYSDPYNDHDYWGQGTQVTVSS,low polyreactivity
3,QVQLVESGGGLVQAGGSLRLSCAASGRISFYYARGWSIQAPGKERELVAAISRGGSTYYADSVKGRFTISRDNAKNTVYLQMNSLKPEDTAVYYCAATYSVVDTPSGYDYWGQGTLVTVSS,low polyreactivity
4,QVQLEDSGGGLVQAGGSLRLSCAASGITVFYYAMGWSRQAPGKERELVATMSWGGDSTYSADSVKGRFTISRDNAKNTVYLQMNSLKPEDTAVYYCAARYWFFRFWYDYWGQGTQVTVSS,high polyreactivity
5,QVQLVESGGGLVQAGGSLRLSCAASGRTFSGYAMGWYRPAPGKERELVAAITSGGNTYYADSVKGRFTISRDNAKNTVYFQMNILKPEDTAVYYCATVYADESGIEGYSWGQGTQVTVSS,low polyreactivity
6,QVQLVDSGGGLVQAGGSLRLSCAASGRTFRYYAMGSYRQAPGKERELVAAISGRGGSTYYADSVKGRFTISRDNAKNTVYLLMNSLKPADTAVYYCAKRGYYRSRRYDYWGQGTQVTVSS,high polyreactivity
7,QVQLVESGGGLVQAGGSLRLSCAASGITFKYNAMAWYRQAPGKEMELVAAISSGGNTYYADSVKGRFTISRDNAKNTVYLQMNSLKPEDTAVYYCAAPSYDTLWHDYWGQGTQVTVSS,low polyreactivity
8,QVQLVESGGGLVQAGGSLRLSCAASGSTFYLNTMGWYRQAPGKERELVASISRSGGTTYYADSVKGRFTISRDNAKNTVYLQMNSLKPEDTAVYYCAKRYYFTHAYSRTFYYWGQGTQVTVSS,high polyreactivity
9,QVQLGDSGGGLVQAGGSLRLSCAASGFNFRTNTMGWYRQEPGKERELVAAITRSGGSTYYADSVKGRFTISSDNAKYTVYLQMNSLKPEDSAVYYCAKEYRRVVADFGYWGQGTQVTVSS,high polyreactivity
10,QVQLVESGGGLDQAGGSLRLSCAASGSTFGWYAMGWYIQAPGTERELVAAINSSGGTTYYADSVKGLFTISRDNAMNTVYLQMNSLKPEDTAVHYCAARQVYSVGKDTRSVGYWGQGTQVTGSS,low polyreactivity
11,QVQLVESGGGLVKAGGSLRLSCAASGSIFDGNAMGWYRQAPGKERELVADISRGGSTYYADSVKGRFTISRDNAKNTVYLLMNSLKPEDTAVYYCNVEFFFWPYEYGYWGQGTQVTVSS,low polyreactivity
12,QVQLVESGGGLVQAGGSLRLSCAASGFTFLWNAMGWYRQAPGKERELVAAINGNSGNTYYADSVKGRFTISRDNAKNTVYLQMNSLKPEDTAVYYCARRGGVRGYYGGRRSKMDYWGQGTQVTVSS,low polyreactivity
13,QVQHVESGGGLVQAGGSLRLSCAASGRIIWQNAMGWDRQAPGKERELVAAISSRGGTTYYADSVKGRFTISRDNAKNTVYLQINSLKPEDTAVYYCAKEVWRHYLNLYDYWGQGTQVTVSS,low polyreactivity
14,QVQLVESVGGLVQAGGSLRLSCAASGSTFIIYAMGWYRQAPGKERELVATISTRGTSTYYADSVKGRFTISRDNEKNTVYLQMKSLKPEDTAVYYCNARRRGYGNRYTFDYWGQGTQVTVSS,high polyreactivity
15,QVQLVESGGGLVQAGGSLRLSCAASGFTFPYYAMGWYRQAPGKEMELVAVISGSGTRTNYADSVKGRFTISRDNAKNTVYLQMNSLKPEDTEVYYCAAYYTYLHYIYDYWGQGTQVTVSS,high polyreactivity
16,QVQLVESGGGLVQAGGSLRLSCAASGSILTYNFMGWYRQAPGKERELVASISWSGGRTYYADSVKGRFTISRDNAKNTVYLQMNSLKPEDTAAAYCAVSQSWYWYYASDYWGQGTQVTVSS,low polyreactivity
17,QVQLVESGGGLVQAGGSLRLSCAASGNTFDGYDMGWYRQAPGKERELVAAITNTGASTYYADSVKGRFTISRDNAKNTVYLQMNSLKPEDTAVYYCTAQDSYPEDRHGMSYWGQGTQVTVSS,low polyreactivity
18,QVQLVESGGGLVQAGGSLRLSCAASGSTFYGYAMGWYRQAPGKERELVAAISVRAGITYYADSVKGRFTISRDNAKNTVYLQMNSLKPEDTAVYYCAKDHWTTSYDEGDYWGQGTQVTVSS,low polyreactivity
19,QVQLVESGGGLVQAGGSLRLSCAASGNIFSSNAMGWYRHAPGKEREVVAAITRSGGSTYYADSVKGRFTISRDNAKNTVYLQMNSLKPEDTAVYYCAAGKPRSKYWYDYWGQGTQVTVSS,high polyreactivity
20,QVQLVESGGGLVQAGGSLRLSCAASGSILYYNAMGWYRQAPGKERELVAAISQRGASTYYADSVKGRFTISRDNAKNTVYLQMNSLKPEDTAVYYCAARTRLTADPRYGISSKMYYWGQGTQVTVSS,high polyreactivity
